Key:
[1] = target: T1, human eIF4E (Homo sapiens, UniProt P06730 1-217); experiment: EMSA; EMSA: 10 mM HEPES pH 7.5, 20 mM KCl, 1 mM DTT, 3 mM MgCl2, 1 ug/uL tRNA, 0.5 ug/uL BSA, 1 U/uL RNaseOUT, 5% glycerol, 10 uL, 25 min on ice, gel at 4 C; SHAPE: benzoyl cyanide, 22 C; settings: protein: recombinant; label: 32P; pseudoknot between C and G domains
[2] = target: T1, human eIF4E; experiment: EMSA; text: not shifted by 2 uM; EMSA: 10 mM HEPES pH 7.5, 20 mM KCl, 1 mM DTT, 3 mM MgCl2, 1 ug/uL tRNA, 0.5 ug/uL BSA, 1 U/uL RNaseOUT, 5% glycerol, 10 uL, 25 min on ice, gel at 4 C; SHAPE: benzoyl cyanide, 22 C; settings: protein: recombinant; label: 32P; pseudoknot between C and G domains; three bands without protein

T1 sequence (P06730 whole entry): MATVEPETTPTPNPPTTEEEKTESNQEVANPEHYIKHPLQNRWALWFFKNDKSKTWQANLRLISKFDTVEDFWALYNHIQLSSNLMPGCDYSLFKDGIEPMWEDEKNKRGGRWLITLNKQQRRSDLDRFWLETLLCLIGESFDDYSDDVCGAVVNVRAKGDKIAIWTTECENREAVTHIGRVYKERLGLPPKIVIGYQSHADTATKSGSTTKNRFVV

B1: TPAV PTE capped (structured_RNA)
RNA: GGACAAGACCCCAGGCGGGACGCCACACCCAUGUUUGCAGACAUGGCCCGAGGAAACUCUGGUGUGGGCUGGGGGGAAUCC
modifications: 5' cap
Kd [1]: 160 ± 1 nM

B2: TPAV PTE uncapped (structured_RNA)
RNA: B1 RNA
Kd [1]: 838 ± 124 nM

B3: PEMV2 PTE capped (structured_RNA)
RNA: GUAGUGGUAGAACACGUGGGAUAGGGGAUGACCUUGUCGACCGGUUAUCGGUCCCCUGCUCCUUCGAGCUGGCAAGGCGCUCACAGGUUCUACACUGCUACUA
modifications: 5' cap
Kd [1]: 285 ± 33 nM

B4: PEMV2 PTE uncapped (structured_RNA)
RNA: B3 RNA
Kd [2]: 2520 ± 435 nM
